Experiments:
[1] = target: SurR oxidized with diamide or colloidal S^0 (Pyrococcus furiosus); experiment: SEC
[2] = target: AxxA-SurR (SurR C23A C26A variant) (Pyrococcus furiosus); experiment: crystal structure
[3] = target: AxxA-SurR (SurR C23A C26A variant) (Pyrococcus furiosus); experiment: SEC

Substance | stoichiometry N [1] | stoichiometry N [2] | stoichiometry N [3]
SurR oxidized with diamide or colloidal S^0 (natural protein) | 2 | – | –
AxxA-SurR (SurR C23A C26A variant) (natural protein) | – | 2 | 2

From article PMC2975895
